This is an account of results in a protein production outcome set (Wang et al. 2014).

A short description of the data set: label from the status in PepcDB records.
For “MDHIRTHNTHHARKSADHLCVITDGGVSAIDRVSQRNIRVRLGAEHHDQLFCQAHGLKRLLPGKSIDLHKDKKWRTLICSITKNPETSMTPDAARKNSPEMKPRKKKKRQFRQLFARSLQRLARTRSGSAEFSGPLRSVAILAQEKLGDCVLLTPLVRNLRQAFPDLEIHLITFSRASANFFMNDPQVTAVHLVKKQPRRYFREVLSRKFDLLFNTKDHPSTWFLLQSALIRARFKVGHNNPFHEGLYDRLLDTEFHAHMAVKNCALLPLLGVTADTEACRPSLPAMPVSNEIWQLLSRLAEDIRPIGVNISAGEPNRLWTEAKWRALLERFPGERFVVLSGPDDLDAKRRLEEQCPNAVASPPTRNLYEASCIVAKLRLLVTPDTSMVHVASATGTPVAGLYREAPQDISRFGPYAIPYEIVISPTGEVSGIKPESVADAVRRLMARAIGREA”, the protein production result is recorded as “failed”.

As for “MDHKKVAERVIKDVGRDNIIAGAHCATRLRLVLKDDSKVDQKALDNDPDVKGTFKTNGQYQVIIGPGDVNDVYDEFIKITGLKELSTDDLKKVAAEGQKKNPIMDFIKLLSDIFVPIIPALVAGGLLMALNNFLTSPGLFGPKSVVQMAPNVAGISSMIQVMSAAPFIFMPILVGMSAAKRFGANQFLGATIGMIMTTPGLGGATKFWDIFGLHVAQTNYQYQVIPVLVAVWVLSIFEKYFHKHLPSAVDFTFTPLLSIMITGFLTFTIIGPVFKGVSDAITNAIVWLYDTTGAFGMGVFGLSYSAIVTTGLHQSFPAVETQLLAAFAKNPASSGDFIFVTACMANVAQGAATFAVYFLTKNKKMKGLASSSGVSALLGITEPALFGVNLKYKFPFFCALIGSGVAAAFAGLMHVTAAALGSAGFLGFLSIYPRTIPMWVVSVAISFAVSFILTYVYGKSHLKEEVAEQDVPVNDATDYAEETQKAEKIGKEQLALKDEIIYSPVDGTPESLTKVNDQVFSAKLMGDGAAVIPSDGTIYAPVTGTVTIAYETKHAYGIKSDDGAEVLIHIGLDTVNLKGEHFESFVKQGQRVEKGDKLGSVDLDAVKKAGYDTTVMVVITNTANYANVQRITDAGDKHGDKLIAVTAHE”, the protein production entry is on record as “failed”.

On to “MDIDASSCPELYARRAYGAEMTSQHQNTPSSEQIRRAPKVLLHDHLDGGLRPGTIVELARDAGYSGLPETDPDKLGIWFREAADSGSLERYLETFAHTCAVMQTRAALVRVAAECAEDLAADGVVYAEVRYAPEQHLEAGLSLEEVVEAVNEGFRAGERRAKEDGNRIRVGALLTAMRHAARALEIAELANRYRDAGVVGFDIAGAEAGFPPTRHLDAFEYLKRENNHFTIHAGEAFGLPSIWQALQWCGADRLGHGVRIIDDIQVREDGSVKLGRLASYVRDKRIPLELCPSSNLQTGAASSYADHPIGLLRRLHFRATVNTDNRLMSGTSMSREFEHLVDAFGYTLDDMAWFSVNAMKSAFIPFDERLAMINDVIKPGYAELKSEWLFKQTASTSSSAASEE”, for which the protein production result is reported as “not failed”.

In the case of “MDIEDLRTFVAVADAGGVSAAARRLGISKSIVSRRLFRIEAELGVQLLARTTRGAALTEAGITFRDHAARASAEIDTARETILPAGELHGRLRIAMPLTFGPTHFAPVLAEMARQHPQLHIHTSYSDRFVDLIAEGFDCAIRGAYLQDSNLIAKRVGPIHGKLVASPAYIKAHGSPEMVEQLVNHQALMQGTEAWQFMDGDRIVTVQPQGKFKADSATALAAAAAAGLGIAWLPDCITHAYLASGALVPIMTRYPVPPGAVYVVRPPSQHPARKVRVLTEMLTEYFKRTPELWGVDG”, the protein production result was “failed”.

Regarding “MDIHIKPINTFAHAEMDALYTMIFHFYEEYDPTHVITKESINDTIIHLTNHPESGSIQFVYDAENALVGYVILIKYWSNEYQGYLLFIDELYIVPDKRSLGYGRTCITLIEKTFHDIQALALEVSPKNTRAQAFYLQLGFLPNKNKTFIKIKY”, the protein production result is on record as “failed”.

Consider “MDIKEAGPFPVKKEQFRMTVNGQAWEVAAVPTTHLSDLLRKEFQLTGTKVSCGIGRCGACSILIDGKLANACMTMAYQADGHSITTIEGLQKEELDMCQTAFLEEGGFQCGYCTPGMIIALKALFRETPQPSDKDIEEGLAGNLCRCTGYGGIMRSACRIRRELNGGRRESGF”, for which the protein production entry is given as “failed”.

Regarding “MDIQGLLERLKPFIIIVLLFSVVFYIRAEASNIGGVPADAKKFYEDADGLPYFSEMDSYYNYRLTMNYLTKGIMGDTLVDGKPYDLHSYYPPGRPVDYPPLIVYVTSAAYRVLNFFGDFSLKEVAFWMGAFIGSLCVIPAYLFVRRITNDYGGFAAALIVGLVPTYVAHTYAGFFDTDMFNFVLPLFVFWFFTEGMLASSMRGKVGYALAAAVSILVFSAAWVGYIFYLAVLIVFVAAYLVISRYILGEKPAGEFEGKLDWLIHQRELFPLLILIIAGGVLVGVFGGFSSLAGAVGGLIGATQIQATAQTTAYPNVYVSVSELQVPEFITTGAGNIFLPGQNTIVGGVGGLLVFIIGVLGVGALVWKYRQPEVVVEESENRPRAGKKSKFMRKKRAAVASEEMRHRYLLYAVLMAVWLIMSGYAVTKGSRFIPTFAMPLGLSAGIFTGFLVEYLRVRFTTTSSLALIVFVAAVAMVMPFGVSVAVKLLAGVLAAGFIYSVKKPEIRAPFMMVLVVLAAVAPSVSGAHSITTSVAPGTDDGMWNSMQWVKKNTSRDTVVMSWWDFGHLFAVAADRPVTFDGGSQNTPRAYWIGKALTTSNETLSRGILTMLSTSGDLAYETLDNYTDDSGKTAEILTATLGLPREEARAVMTGRYGLSDKEADSVLRYSHPAKPKPFVLVLSSDMLGKAPWWTYFGTWDFKKKTGSRYGYYPSLASSKPQVVNNTTVIQTVNTMVDQNNVLGTIIEKKANTTNATIAVGNNMTVQKINPHRLTIIEGDLLVKNEVVDSDAQLSLIVIGSGNQYTTIIMNRELEDSVFTKLFLLGGFNQTSFKFLHQEPGVLLWTAA”, the protein production result is given as “failed”.

With “MDISLLKQVVQSTNKIALSTAVNNEADVKIVNFVWYEAQPDTLYFSSVKTSPALKVYDQNPDIAFITIPNDGTAGNPYLRAQHVKLQRSTKTMTDLLPQYLETVPNYQQVWDAIGSTLVVFELKLTDLFVDAGVGGEKQTLTFN”, the protein production result is recorded as “not failed”.

As for “MDITSLINANVICLDLTSTSKEDILQEMVQILDDAGKLSNKTQFLSDVWAREEIGNTGFEDGIAIPHAKSSAVLTPSVAIGISRTGIDYGAEDGEPSDIFFMLASTDGDDNQHIEALAQISSRLIEDGFTNKLKKADSKEEILDLFTDIIQPNTESTDIENAPSQIEKSELTRKLGRTKEHLLFGTSHMIPFIVAGGVLLSLSVMISGQGAVPTEGILADIAQMGIAGLTLFTAVLGGYIAYSIADKPGLAPGMIGSWIAVQQYNTGFLGAIIIGFFAGFVVRSLKKIKLPESMASLGSIFIYPLVGTFLTCAAVMWVIGAPISNAMAALNEWLASMAGSGKIALGAILGAMAAFDMGGPINKVATLFAQTQVNTQPWLMGGVGIAICTPPLGMALATFLSPKKFKRDEREAGKAAGIMGMIGITEGAIPFAAADPARVIPAIVAGGIVGNITGFVFNVLNHAPWGGWIVLPVVDGKIGYIIGTLLGAFTTAAIVILLKKNAVEDDEHTQQKFTFESVKNEGEADVLAVTACPSGVAHTFLAAKSLEKAAHKLGIKIKVETQGADGINNRITPLDIKNAKLVIFAHDVAIKEPLRFKGMRTLDIATKDAMYSAEQLLNDNLTKHHKRFSKA”, the protein production entry is listed as “failed”.

On to “MDKKEYSETFYHPYKPYDIQVQLMETVYRVLSEGKKIAILESPTGTGKTLSLICATMTWLRMNKADIFTRMETNIKTNEDDSENLSDDEPDWVIDTYRKSVLQEKVDLLNDYEKHLNEINTTSCKQLKTMCDLDKEHGRYKSVDPLRKKRKGARHLDVSLEEQDFIPRPYESDSENNDTSKSTRGGRISDKDYKLSELNSQIITLLDKIDGKVSRDPNNGDRFDVTNQNPVKIYYASRTYSQLGQFTSQLRLPSFPSSFRDKVPDEKVKYLPLASKKQLCINPKVMKWKTLEAINDACADLRHSKEGCIFYQNTNEWRHCPDTLALRDMIFSEIQDIEDLVPLGKSLGICPYYASREALPIAEVVTLPYQYLLSESTRSSLQINLENSIVIIDEAHNLIETINSIYSSQISLEDLKNCHKGIVTYFNKFKSRLNPGNRVNLLKLNSLLMTLIQFIVKNFKKIGQEIDPNDMFTGSNIDTLNIHKLLRYIKVSKIAYKIDTYNQALKEEESSKNENPIKETHKKSVSSQPLLFKVSQFLYCLTNLTSEGQFFFEKNYSIKYMLLEPSKPFESILNQAKCVVLAGGTMEPMSEFLSNLLPEVPSEDITTLSCNHVIPKENLQTYITNQPELEFTFEKRMSPSLVNNHLFQFFVDLSKAVPKKGGIVAFFPSYQYLAHVIQCWKQNDRFATLNNVRKIFYEAKDGDDILSGYSDSVAEGRGSLLLAIVGGKLSEGINFQDDLCRAVVMVGLPFPNIFSGELIVKRKHLAAKIMKSGGTEEEASRATKEFMENICMKAVNQSVGRAIRHANDYANIYLLDVRYNRPNFRKKLSRWVQDSINSEHTTHQVISSTRKFFSMRSLNSR”, for which the protein production entry is “failed”.

Take “MDKKPLNTLISATGLWMSRTGTIHKIKHHEVSRSKIYIEMACGDHLVVNNSRSSRTARALRHHKYRKTCKRCRVSDEDLNKFLTKANEDQTSVKVKVVSAPTRTKKAMPKSVARAPKPLENTEAAQAQPSGSKFSPAIPVSTQESVSVPASVSTSISSISTGATASALVKGNTNPITSMSAPVQASAPALTKSQTDRLEVLLNPKDEISLNSGKPFRELESELLSRRKKDLQQIYAEERENYLGKLEREITRFFVDRGFLEIKSPILIPLEYIERMGIDNDTELSKQIFRVDKNFCLRPMLAPNLYNYLRKLDRALPDPIKIFEIGPCYRKESDGKEHLEEFTMLNFCQMGSGCTRENLESIITDFLNHLGIDFKIVGDSCMVYGDTLDVMHGDLELSSAVVGPIPLDREWGIDKPWIGAGFGLERLLKVKHDFKNIKRAARSESYYNGISTNL”: the protein production result was “not failed”.

Take “MDKLDANVSSEEGFGSVEKVVLLTFLSTVILMAILGNLLVMVAVCWDRQLRKIKTNYFIVSLAFADLLVSVLVMPFGAIELVQDIWIYGEVFCLVRTSLDVLLTTASIFHLCCISLDRYYAICCQPLVYRNKMTPLRIALMLGGCWVIPTFISFLPIMQGWNNIGIIDLIEKRKFNQNSNSTYCVFMVNKPYAITCSVVAFYIPFLLMVLAYYRIYVTAKEHAHQIQMLQRAGASSESRPQSADQHSTHRMRTETKAAKTLCIIMGCFCLCWAPFFVTNIVDPFIDYTVPGQVWTAFLWLGYINSGLNPFLYAFLNKSFRRAFLIILCCDDERYRRPSILGQTVPCSTTTINGSTHVLSGCSPVSSFLLLFCNRPVPV”: the protein production entry is given as “failed”.

Take “MDKLNAISIFCKVIETQSFTLAAKQQNISVAMASKLVSQLEEHLKTRLLQRTTRKIMPTEAGMMYYQRCQGILLDLDEADSSITQLTSSLQGNLLISVPRDFGLLFIAPNLPTFMAKHPHLHIEVEFNDKKIDLLSEGYDLALRIGYMEDSSLVSRKIGTTTVHFAASPNYLETNGIPQTPDDLEHHNGLLYKNAMNQVNWVGSRINQTQRFKIQSKVVSNSGFALLNMAKAGLGIANLPKFILGRAFEKGELIEILPEYKQQKLEIHVVYPNRRHLPIKVTGISLNF”: the protein production result is given as “failed”.

Consider “MDKMTSSKHYKESMTLLFEGSLRAIPFNIILATLLALDLVYSDVPALIIGAWFFGIVFISLVRSYFCWKIIKRGVEKNRIQATLIEFFLLTFVTGSIWGACYFITLPYVNDLHEFIIILVFGGMCAGAIASLSIYLPAYYAYVFPMLLPVIVYNYALLDVDRTMLATMFLIFIAMLIISAKINHRLLNENFRLFNEKELLINELKVMSITDSLSGLYNRRYFDNIFPQEFNRARRNQYFLSLVSIDIDNFKLINDNLGHPFGDKVLISIADLLKKIFRRSNDILFRLGGDEFAIIIANQPIKETISICETIKNPFKTENLNHTYDSNEQLFMSHVTLSIGIVYIHFESSASIEHAITAADKALYQAKKKGKNQIVVKKLL”, for which the protein production result is “failed”.

Turning to “MDKNEIGLNAGKVWQLLSNNDKWSYGNLKKKSGLKDKDLGAALGWLAREDKIEFEQEEEELYVYLCVNVYIGLEHHHHHH”, the protein production entry is reported as “failed”.
